For experiment [1], the target named is T1, subtilisin Carlsberg (Bacillus licheniformis, UniProt P00780).
T1 chain: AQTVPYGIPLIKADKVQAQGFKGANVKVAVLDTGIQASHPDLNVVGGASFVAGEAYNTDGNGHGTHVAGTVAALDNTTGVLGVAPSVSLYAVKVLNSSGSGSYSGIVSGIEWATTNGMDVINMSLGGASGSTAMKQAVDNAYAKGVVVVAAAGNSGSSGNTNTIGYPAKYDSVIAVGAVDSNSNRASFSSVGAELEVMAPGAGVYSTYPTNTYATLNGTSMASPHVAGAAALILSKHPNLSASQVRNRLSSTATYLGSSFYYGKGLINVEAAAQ
As to the kind of experiment: ITC. In general terms: In ITC the heat of successive injections is recorded.

Experiment [2] has as its target T1, subtilisin Carlsberg. As to the kind of experiment: ITC; given as Ka.

For one molecule, Kd results are on record in article PMC3082530 (2011).

Regarding VCTEEY [VCTEEY peptide (CrSPI-1 domain 2 RSL)], the equilibrium dissociation constant (Kd) came out at 500 µM with subtilisin Carlsberg [1] and 526 µM in the experiment with subtilisin Carlsberg [2].

Usually Kd stands for the constant that tells how readily two partners part at equilibrium. A high value points to lower affinity.
